Target: fluorescein labeled SecYEG reconstituted in proteoliposomes (E. coli) (UniProt P0AGA2)
Assay: FRET or BRET; DCFBA-FRET on single proteoliposomes; SecYEG-FM (donor, 488 nm excitation) in PLs, proOmpA(C282)-DhfR-Atto647N (acceptor) in complex with SecB, SecA, NADPH and methotrexate, with or without ATP; in hydrogel of gelator 1 and in suspension; stalled translocation intermediate

UniProt P0AGA2, sequence (P0AGA2 whole entry, chain 1 of 3): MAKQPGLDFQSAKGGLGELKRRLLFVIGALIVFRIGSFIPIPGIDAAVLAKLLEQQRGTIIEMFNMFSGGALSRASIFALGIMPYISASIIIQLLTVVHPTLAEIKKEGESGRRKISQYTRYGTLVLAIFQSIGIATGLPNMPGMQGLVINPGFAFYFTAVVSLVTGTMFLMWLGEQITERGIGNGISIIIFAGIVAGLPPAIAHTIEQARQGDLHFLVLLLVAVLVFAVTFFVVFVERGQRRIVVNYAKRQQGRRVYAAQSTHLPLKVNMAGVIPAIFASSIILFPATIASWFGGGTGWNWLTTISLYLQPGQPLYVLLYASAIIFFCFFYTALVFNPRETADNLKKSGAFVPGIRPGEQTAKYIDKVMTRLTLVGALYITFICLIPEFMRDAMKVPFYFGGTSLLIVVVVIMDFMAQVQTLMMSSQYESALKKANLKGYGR
UniProt P0AGA2, sequence (P0AG96 whole entry, chain 2 of 3, further chain): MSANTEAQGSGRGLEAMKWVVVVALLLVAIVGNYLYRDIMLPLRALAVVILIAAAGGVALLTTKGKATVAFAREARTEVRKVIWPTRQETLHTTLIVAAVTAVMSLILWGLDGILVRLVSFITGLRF
UniProt P0AGA2, sequence (P0AG99 whole entry, chain 3 of 3, further chain): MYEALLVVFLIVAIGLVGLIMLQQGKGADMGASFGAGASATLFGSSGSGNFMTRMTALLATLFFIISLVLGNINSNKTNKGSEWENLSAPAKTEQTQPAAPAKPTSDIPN

average FRET efficiency per liposome in the hydrogel compared to suspension: 50%
Substance: fusion protein proOmpA(C282)-DhfR-Atto647N

— paper PMC3105061
